In US20230391859A1:
pKd: −log10 of the molar value.

Columns and labels:
[1] = target: cardiac amyloid deposits (ATTR amyloid) (UniProt P02766); assay: ex vivo binding to cardiac amyloid in tissue sections, quantified as % of maximum
[2] = target: cardiac amyloid deposits (ATTR amyloid) (UniProt P02766); assay: ex vivo binding curve on cardiac tissue sections with amyloid (FIG. 5G)
[3] = target: cardiac amyloid deposits (ATTR amyloid) (UniProt P02766); assay: ex vivo binding curve on cardiac tissue sections with amyloid (FIG. 5G); same value in mass units

Substance “murine precursor of PRX004 (mPRX004) (antibody)” has an EC50 (read off the curve) [1] of 0.3 µg/mL, a pKd [2] of 8.76 and a Kd [3] of 0.26 µg/mL.
